How the values were obtained:
Assay in all cases: IEDB peptide-MHC binding, cellular MHC/competitive/fluorescence; ≥ and ≤ were set here for values at or beyond the usual limits of such assays
HLA-A*02:04 = target: HLA-A*02:04
HLA-A*02:02 = settings: source organism: Human papillomavirus 16
HLA-A*02:06 = settings: source organism: Human papillomavirus 16
HLA-A*02:05 = settings: source organism: Human papillomavirus 16
HLA-A*02:03 = settings: source organism: Human papillomavirus 16
[1] = source organism: Human papillomavirus 16

Row | Sequence | IC50 (HLA-A*02:04; source organism: Hepatitis B virus) | IC50 (HLA-A*02:02) | IC50 (HLA-A*02:06) | IC50 (HLA-A*02:05) | IC50 (HLA-A*02:04; [1]) | IC50 (HLA-A*02:03)
1 | FLPSDFFPSV | 1 µM |  |  |  |  | 
2 | TLGIVCPI |  | 4 µM | 28 µM | ≥ 20 µM | 4 µM | 2 µM
3 | YMLDLQPETT |  | 6 µM | ≥ 70 µM | ≥ 100 µM | 11 µM | 5 µM
